B1: CHCHD6 (parent)
chain: MYKLSSEQFHEAASKMESTIKPRR
B2: ZNF263 (parent)
chain: EKPYKCPECGEIFAHSSNLLRHQR

Variants of: B1
Assay: protein stability index of a GFP-peptide fusion (GPS, HEK-293T) (PSI 1-6); higher = more stable
Conditions: c terminus: a fixed tail appended
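Note: lentivirally expressed fusions sorted by FACS into six bins by GFP to DsRed ratio, PSI derived from sequencing read proportions per bin multiplied by bin number.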

Variant	protein stability index
MYKLSSEQFHEAASKMESTIKPYR [R23Y]	3.44
MYKLSSEQFHEAASKMESTIKPDR [R23D]	4.44
MYKLSSEQFHEAASKMESTIKPGR [R23G]	3.59
MYKLSSEQFHEAASKMESTIKPHR [R23H]	3.96
MYKLSSEQFHEAASKMESTIKPER [R23E]	4.14
MYKLSSEQFHEAASKMESTIKPCR [R23C]	3.48
MYKLSSEQFHEAASKMESTIKPPR [R23P]	3.78
MYKLSSEQFHEAASKMESTIKPAR [R23A]	3.99
MYKLSSEQFHEAASKMESTIKPSR [R23S]	3.7
MYKLSSEQFHEAASKMESTIKPNR [R23N]	3.4
MYKLSSEQFHEAASKMESTIKPTR [R23T]	3.31
MYKLSSEQFHEAASKMESTIKPIR [R23I]	3.05

Variants of: B2
Assay: as above
Conditions: c terminus: a fixed tail appended

Variant	protein stability index
EKIYKCPECGEIFAHSSNLLRHQR [P3I]	1.82
EKFYKCPECGEIFAHSSNLLRHQR [P3F]	2.69
EKMYKCPECGEIFAHSSNLLRHQR [P3M]	2.78
EKYYKCPECGEIFAHSSNLLRHQR [P3Y]	3.04
EKHYKCPECGEIFAHSSNLLRHQR [P3H]	1.88
EKLYKCPECGEIFAHSSNLLRHQR [P3L]	2.57
EKCYKCPECGEIFAHSSNLLRHQR [P3C]	2.1
EKVYKCPECGEIFAHSSNLLRHQR [P3V]	2.13
EKTYKCPECGEIFAHSSNLLRHQR [P3T]	2.85
EKAYKCPECGEIFAHSSNLLRHQR [P3A]	2.29
EKKYKCPECGEIFAHSSNLLRHQR [P3K]	1.52
EKWYKCPECGEIFAHSSNLLRHQR [P3W]	2.83
EKDYKCPECGEIFAHSSNLLRHQR [P3D]	3.11
EKSYKCPECGEIFAHSSNLLRHQR [P3S]	2.09
EKEYKCPECGEIFAHSSNLLRHQR [P3E]	2.91
EKQYKCPECGEIFAHSSNLLRHQR [P3Q]	1.78
EKNYKCPECGEIFAHSSNLLRHQR [P3N]	1.39
EKRYKCPECGEIFAHSSNLLRHQR [P3R]	1.89
SKPYKCPECGEIFAHSSNLLRHQR [E1S]	2.44
FKPYKCPECGEIFAHSSNLLRHQR [E1F]	2.13
AKPYKCPECGEIFAHSSNLLRHQR [E1A]	1.55

Variant	protein stability index
CKPYKCPECGEIFAHSSNLLRHQR [E1C]	1.85
PKPYKCPECGEIFAHSSNLLRHQR [E1P]	2.2
LKPYKCPECGEIFAHSSNLLRHQR [E1L]	2.53
GKPYKCPECGEIFAHSSNLLRHQR [E1G]	1.99
YKPYKCPECGEIFAHSSNLLRHQR [E1Y]	2.06
VKPYKCPECGEIFAHSSNLLRHQR [E1V]	2.45
IKPYKCPECGEIFAHSSNLLRHQR [E1I]	2.33
QKPYKCPECGEIFAHSSNLLRHQR [E1Q]	3.43
KKPYKCPECGEIFAHSSNLLRHQR [E1K]	1.83
HKPYKCPECGEIFAHSSNLLRHQR [E1H]	2.75
MKPYKCPECGEIFAHSSNLLRHQR [E1M]	2.37
RKPYKCPECGEIFAHSSNLLRHQR [E1R]	2.9
WKPYKCPECGEIFAHSSNLLRHQR [E1W]	1.76
NKPYKCPECGEIFAHSSNLLRHQR [E1N]	2.31
DKPYKCPECGEIFAHSSNLLRHQR [E1D]	2.94
TKPYKCPECGEIFAHSSNLLRHQR [E1T]	2.65
EKPGKCPECGEIFAHSSNLLRHQR [Y4G]	2.85
EKPVKCPECGEIFAHSSNLLRHQR [Y4V]	3.51
EKPRKCPECGEIFAHSSNLLRHQR [Y4R]	2.48
EKPKKCPECGEIFAHSSNLLRHQR [Y4K]	2.73
EKPQKCPECGEIFAHSSNLLRHQR [Y4Q]	3.06

Variant	protein stability index
EKPLKCPECGEIFAHSSNLLRHQR [Y4L]	2.47
EKPSKCPECGEIFAHSSNLLRHQR [Y4S]	2.52
EKPNKCPECGEIFAHSSNLLRHQR [Y4N]	2.45
EKPWKCPECGEIFAHSSNLLRHQR [Y4W]	2.29
EKPFKCPECGEIFAHSSNLLRHQR [Y4F]	2.15
EKPCKCPECGEIFAHSSNLLRHQR [Y4C]	2.48
EKPMKCPECGEIFAHSSNLLRHQR [Y4M]	1.84
EKPEKCPECGEIFAHSSNLLRHQR [Y4E]	2.99
EKPTKCPECGEIFAHSSNLLRHQR [Y4T]	2.91
EKPIKCPECGEIFAHSSNLLRHQR [Y4I]	2.76
EKPPKCPECGEIFAHSSNLLRHQR [Y4P]	2.12
EVPYKCPECGEIFAHSSNLLRHQR [K2V]	3
ETPYKCPECGEIFAHSSNLLRHQR [K2T]	3.05
ERPYKCPECGEIFAHSSNLLRHQR [K2R]	2.64
EDPYKCPECGEIFAHSSNLLRHQR [K2D]	3.24
EIPYKCPECGEIFAHSSNLLRHQR [K2I]	1.68
EMPYKCPECGEIFAHSSNLLRHQR [K2M]	2.59
EPPYKCPECGEIFAHSSNLLRHQR [K2P]	3.37
EHPYKCPECGEIFAHSSNLLRHQR [K2H]	3.36
EWPYKCPECGEIFAHSSNLLRHQR [K2W]	2.32
EQPYKCPECGEIFAHSSNLLRHQR [K2Q]	2.89

Variant	protein stability index
EYPYKCPECGEIFAHSSNLLRHQR [K2Y]	3.34
EFPYKCPECGEIFAHSSNLLRHQR [K2F]	3.99
ECPYKCPECGEIFAHSSNLLRHQR [K2C]	3.25
EEPYKCPECGEIFAHSSNLLRHQR [K2E]	3.09
EKPYHCPECGEIFAHSSNLLRHQR [K5H]	2.38
EKPYCCPECGEIFAHSSNLLRHQR [K5C]	1.52
EKPYGCPECGEIFAHSSNLLRHQR [K5G]	2.31
EKPYTCPECGEIFAHSSNLLRHQR [K5T]	3.41
EKPYLCPECGEIFAHSSNLLRHQR [K5L]	2.39
EKPYPCPECGEIFAHSSNLLRHQR [K5P]	2.55
EKPYQCPECGEIFAHSSNLLRHQR [K5Q]	3.12
EKPYFCPECGEIFAHSSNLLRHQR [K5F]	2.66
EKPYSCPECGEIFAHSSNLLRHQR [K5S]	2.64
EKPYECPECGEIFAHSSNLLRHQR [K5E]	3.02
EKPYRCPECGEIFAHSSNLLRHQR [K5R]	2.61
EKPYDCPECGEIFAHSSNLLRHQR [K5D]	2.24
EKPYACPECGEIFAHSSNLLRHQR [K5A]	2.91
EKPYICPECGEIFAHSSNLLRHQR [K5I]	3.39
EKPYNCPECGEIFAHSSNLLRHQR [K5N]	2.5

From the supplement of paper PMC10567573
